In paper PMC3575576:

Molecular target: E47 (mouse (endogenous in palatal shelves)) (UniProt P15806)
UniProt P15806, sequence (P15806 whole entry): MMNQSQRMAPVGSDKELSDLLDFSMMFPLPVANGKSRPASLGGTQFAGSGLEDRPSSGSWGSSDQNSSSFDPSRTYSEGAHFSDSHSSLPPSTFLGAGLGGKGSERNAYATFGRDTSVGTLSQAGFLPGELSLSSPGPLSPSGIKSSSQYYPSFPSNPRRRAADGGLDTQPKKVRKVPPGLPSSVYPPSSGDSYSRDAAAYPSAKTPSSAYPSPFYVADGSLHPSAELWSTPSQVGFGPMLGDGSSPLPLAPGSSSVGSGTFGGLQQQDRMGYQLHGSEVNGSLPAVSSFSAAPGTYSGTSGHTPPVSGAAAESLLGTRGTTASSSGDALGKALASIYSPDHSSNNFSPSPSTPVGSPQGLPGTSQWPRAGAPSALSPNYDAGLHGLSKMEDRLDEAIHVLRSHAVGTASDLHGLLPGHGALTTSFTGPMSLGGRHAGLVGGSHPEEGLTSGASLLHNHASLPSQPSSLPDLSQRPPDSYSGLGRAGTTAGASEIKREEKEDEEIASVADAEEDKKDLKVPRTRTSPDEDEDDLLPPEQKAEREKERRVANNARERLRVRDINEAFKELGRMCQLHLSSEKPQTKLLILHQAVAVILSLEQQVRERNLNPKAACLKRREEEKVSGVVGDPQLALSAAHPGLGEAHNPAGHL

B1: Twist1 (natural protein)
chain: MMQDVSSSPVSPADDSLSNSEEEPDRQQPASGKRGARKRRSSRRSAGGSAGPGGATGGGIGGGDEPGSPAQGKRGKKSAGGGGGGGAGGGGGGGGGSSSGGGSPQSYEELQTQRVMANVRERQRTQSLNEAFAALRKIIPTLPSDKLSKIQTLKLAARYIDFLYQVLQSDELDSKMASCSYVAHERLSYAFSVWRMEGAWSMSASH
In the case of B1, the luciferase activity of the Snail1 promoter (1.7KSnLuc) in MDCK cells transfected with forced Twist1/E47 (T/E) heterodimers, compared with cells transfected with Twist1 alone is reported as 2 fold.
